From US20240150465A1 (Chugai, published 2024)

Columns and labels:
[1] = target: T1, human DLL3 (delta-like protein 3 isoform 1 precursor) expressed on Ba/F3 cells (human, UniProt Q9NYJ7 27-618); test: cell ELISA, B-cell culture supernatants on immobilized hDLL3/BaF_H3 cells
T1 construct: Full-length cDNA stably transfected into mouse Ba/F3 cells; also called human DLL3 expressing Ba/F3
T1 sequence: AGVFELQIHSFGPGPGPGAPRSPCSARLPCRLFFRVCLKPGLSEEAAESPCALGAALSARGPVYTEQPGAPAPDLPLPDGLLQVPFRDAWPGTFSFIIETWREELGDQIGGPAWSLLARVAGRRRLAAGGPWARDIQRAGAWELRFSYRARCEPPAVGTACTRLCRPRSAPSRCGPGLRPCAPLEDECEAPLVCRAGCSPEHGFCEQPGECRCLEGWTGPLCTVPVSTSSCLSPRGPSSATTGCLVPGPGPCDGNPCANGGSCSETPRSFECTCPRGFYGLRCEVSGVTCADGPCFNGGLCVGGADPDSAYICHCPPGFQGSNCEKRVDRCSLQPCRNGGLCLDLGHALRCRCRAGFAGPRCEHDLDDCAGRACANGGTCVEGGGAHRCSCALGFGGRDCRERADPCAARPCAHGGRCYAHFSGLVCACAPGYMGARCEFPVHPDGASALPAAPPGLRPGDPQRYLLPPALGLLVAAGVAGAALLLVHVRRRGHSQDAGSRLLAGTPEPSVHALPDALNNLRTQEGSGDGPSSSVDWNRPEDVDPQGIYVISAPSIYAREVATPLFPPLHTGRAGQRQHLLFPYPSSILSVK
Experimental: ELISA screening was conducted to test specificity of antibodies in B-cell culture supernatants. Human DLL3 expressing Ba/F3 (hDLL3/BaF_H3 established in Example 2, 2.5×10⁴ cells) were immobilized onto a Nunc MaxiSorp 384-well plate (Sigma-Aldrich) which was pre-coated with BSA (Sigma-Aldrich) and SUNBRIGHT (registered trademark) OE-080CS as Biocompatible Anchor for cell Membrane (YUKA SANGYO). Immobilized cells were incubated with 20 microliters (micro L) of B-cell culture supernatants for 1 hour. The supernatants were aspirated and the cells were washed with HEPES buffer (0.02 M HEPES, 5 mM KCl, 4 mM NaHCO₃, 138 mM NaCl, 2 mM CaCl₂, 5 mM Glucose, 0.4 mM KH₂PO₄, 0.34 mM Na₂HPO₄° and 0.1% BSA). After washing, goat anti-rabbit IgG polyclonal antibody HRP conjugate (BETHYL, A120-111P) was added. The cells were further incubated on ice for 1 hour and washed. Then, ABTS Microwell Peroxidase Substrate (Kirkegaard & Perry Laboratories) was added and OD405 was analyzed with […]ax 384 (Molecular Devices).

del0 = target: T2, del0; test: ELISA with the human DLL3 ECD fragment proteins del0 to del6, OD405
T2 construct: also called human DLL3 ECD with Flag-tag on C-terminus
T2 chain: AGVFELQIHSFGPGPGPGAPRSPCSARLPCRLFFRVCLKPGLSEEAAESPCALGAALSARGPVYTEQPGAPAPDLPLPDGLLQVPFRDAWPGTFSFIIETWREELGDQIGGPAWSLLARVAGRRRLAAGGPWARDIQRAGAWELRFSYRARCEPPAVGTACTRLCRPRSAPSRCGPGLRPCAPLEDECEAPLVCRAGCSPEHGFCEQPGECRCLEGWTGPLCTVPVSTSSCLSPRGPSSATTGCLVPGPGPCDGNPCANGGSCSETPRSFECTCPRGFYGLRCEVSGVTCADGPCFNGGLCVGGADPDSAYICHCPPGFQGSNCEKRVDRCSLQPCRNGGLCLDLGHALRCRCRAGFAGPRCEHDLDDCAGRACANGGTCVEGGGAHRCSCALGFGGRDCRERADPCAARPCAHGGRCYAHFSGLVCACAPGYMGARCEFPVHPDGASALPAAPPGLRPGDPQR
Experimental: (§1) Nunc MaxiSorp 384-well plates (Sigma-Aldrich) were coated with each of the human DLL3 ECD fragment proteins del0 to del6, and blocked with 20% Blocking One (NACALAI TESQUE). Blocking buffer was removed and recombinant anti-DLL3 antibodies were incubated with the immobilized proteins for 1 hour at room temperature and washed with HEPES buffer (0.05% Tween20, HEPES). Monoclonal ANTI-FLAG M2-Peroxidase, Clone M2 (Sigma-Aldrich) was then added and incubated for 1 hour at room temperature and washed. Then, ABTS Microwell Peroxidase Substrate (Kirkegaard & Perry Laboratories) was added and OD405 was analyzed with […]ax 384 (Molecular Devices).

del2 = target: T3, del2; test: as above
T3 construct: also called truncated human DLL3 ECD variant with Flag-tag on C-terminus
T3 chain: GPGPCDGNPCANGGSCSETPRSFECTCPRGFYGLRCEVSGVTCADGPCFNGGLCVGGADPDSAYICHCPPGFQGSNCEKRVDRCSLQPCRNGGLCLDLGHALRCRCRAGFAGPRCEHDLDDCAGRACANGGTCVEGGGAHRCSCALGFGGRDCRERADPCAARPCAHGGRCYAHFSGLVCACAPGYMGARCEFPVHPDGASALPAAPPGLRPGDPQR
Experimental: as §1

del3 = target: T4, del3; test: as above
T4 construct: also called truncated human DLL3 ECD variant with Flag-tag on C-terminus
T4 chain: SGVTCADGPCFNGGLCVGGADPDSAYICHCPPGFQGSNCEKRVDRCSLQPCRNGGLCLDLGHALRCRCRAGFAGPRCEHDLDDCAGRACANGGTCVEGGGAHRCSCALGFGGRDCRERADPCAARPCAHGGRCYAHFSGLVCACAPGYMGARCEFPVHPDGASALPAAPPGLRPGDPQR
Experimental: as §1

del4 = target: T5, del4; test: as above
T5 construct: also called truncated human DLL3 ECD variant with Flag-tag on C-terminus
T5 chain: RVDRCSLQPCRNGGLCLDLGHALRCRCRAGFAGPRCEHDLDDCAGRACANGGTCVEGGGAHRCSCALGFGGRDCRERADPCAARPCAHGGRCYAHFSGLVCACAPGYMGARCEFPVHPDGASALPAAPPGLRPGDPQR
Experimental: as §1

del5 = target: T6, del5; test: as above
T6 construct: also called truncated human DLL3 ECD variant with Flag-tag on C-terminus
T6 chain: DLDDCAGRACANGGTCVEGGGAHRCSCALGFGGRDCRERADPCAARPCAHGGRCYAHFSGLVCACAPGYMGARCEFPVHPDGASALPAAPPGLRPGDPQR
Experimental: as §1

del6 = target: T7, del6; test: as above
T7 construct: also called truncated human DLL3 ECD variant with Flag-tag on C-terminus
T7 chain: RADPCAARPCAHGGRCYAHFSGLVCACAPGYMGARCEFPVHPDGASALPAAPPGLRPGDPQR
Experimental: as §1

B1: DLA0379 (antibody, human IgG1, V domains shown)
VH: QSLEESGGRLVTPGTPLTLTCTASGFSLNTYHMIWVRQAPGKGLEWIGIVDSGGSTYYASWAKGRFTISRTSTTVDLKATSLTTEDTATYFCARGGSWDGFNIWGPGTLVTVSS
VL: DVVMTQTPSSVSAAVGGTVTINCQSSQSVYNSDFLAWYQQKPGQPPKLLIYAASTLASGVPSRFKGSGSGTQFTLTISDLECDDAATYYCQGTYEDVGWFNDFGGGTEVVVK
notes: Rabbit B-cell clone, screened as B-cell culture supernatant
binding result [1]: binds
binding result (del0): binds
binding result (del2): no binding
binding result (del3): no binding
binding result (del4): no binding
binding result (del5): no binding
binding result (del6): no binding
